Measured values from paper PMC9191346.

Target: enhanced green fluorescent protein-labeled BLM (BLM-eGFP) (not stated (Gallus gallus or human BLM cloned))
Assay: optical tweezers with confocal fluorescence microscopy

rupture force of the DNA tether bridged by the oligomeric BLM: < 300 pN
Substance: enhanced green fluorescent protein-labeled BLM (BLM-eGFP) (domain or fragment)
